Tests used:
[1] = target: Chikungunya virus-like particles of the 37997 strain (Chikungunya virus, strain 37997, strain); experiment: cryo-EM structure
[2] = target: recombinant p62-E1 protein derived from the CHIKV-LR 2006 strain (Chikungunya virus, LR 2006 …, UniProt Q1H8W5, strain); experiment: ELISA

B1: 506.A08 Fab (Fab, V domains shown)
VH: EEQLVESGGGLVQPGGSLRLSCAASGFTFSSYSMNWVRQAPGKGLEWVSYISSSSSTIHYADSVKGRFTISRDNAKNSLYLQMNSLRAEDTAVYYCAREGNSGYEPLDYWGQGTLVTVS
VL: not shown
B1: binds [1].

B2: 506.C01 Fab (Fab, V domains shown)
VH: QVQLQESGPGLVKPSQTLSLTCTVSGGSISSDDYYWTWIRLPPGKGLEWIGYIFYTGGTYYNPSLKSRVTISLDRSKNQFSLKLSSVTAADTAVYFCARAPETYCSTTNCYKGYFDSWGQGTLVTVSS
VL: DIQMTQSPSSVSASVGDRVTITCRASQGISSWLGWYQQKPGKAPKLLIYAASSLQSGVPSRFSGSGSGTDFTLTISSLQPEDFATYYCQQANSFPRTFGQGTKVEIK
B2: binds [1].

B3: 506.A08 (antibody, V domains shown)
VH: EEQLVESGGGLVQPGGSLRLSCAASGFTFSSYSMNWVRQAPGKGLEWVSYISSSSSTIHYADSVKGRFTISRDNAKNSLYLQMNSLRAEDTAVYYCAREGNSGYEPLDYWGQGTLVTVS
VL: not shown
B3: binds [2].

B4: 506.C01 (antibody, V domains shown)
VH: QVQLQESGPGLVKPSQTLSLTCTVSGGSISSDDYYWTWIRLPPGKGLEWIGYIFYTGGTYYNPSLKSRVTISLDRSKNQFSLKLSSVTAADTAVYFCARAPETYCSTTNCYKGYFDSWGQGTLVTVSS
VL: DIQMTQSPSSVSASVGDRVTITCRASQGISSWLGWYQQKPGKAPKLLIYAASSLQSGVPSRFSGSGSGTDFTLTISSLQPEDFATYYCQQANSFPRTFGQGTKVEIK
B4: binds [2].
